This note sets out measurements from patent publication US7202329 (MYRIAD GENETICS, dated 2007).

B1: mitotic spindle coiled-coil related protein (aa 942-1021) (other, UniProt Q96R06 942-1021, looked up)
chain: LGSDKSAFTRVASMVSLQPAETPGMEESLAEMSIMTTELQSLCSLLQESKEEAIRTLQRKICELQARLQAQEEQHQEVQK
notes: range 942-1021
B2: GTPase-activating protein 1 (aa 1439-1565) (other, UniProt P46940 1439-1565, looked up)
chain: KKSKSVKEDSNLTLQEKKEKIQTGLKKLTELGTVDPKNKYQELINDIARDIRNQRRYRQRRKAELVKLQQTYAALNSKATFYGEQVDYYKSYIKTCLDNLASKGKVSKKPREMKGKKSKKISLKYTA
notes: range 1439-1565; also called IQGAP1; IQGAP
B3: GTPase-activating protein 1 (aa 1439-1567) (other, UniProt P46940 1439-1567, looked up)
chain: KKSKSVKEDSNLTLQEKKEKIQTGLKKLTELGTVDPKNKYQELINDIARDIRNQRRYRQRRKAELVKLQQTYAALNSKATFYGEQVDYYKSYIKTCLDNLASKGKVSKKPREMKGKKSKKISLKYTAAR
notes: range 1439-1567; also called IQGAP1; IQGAP
B4: GTPase-activating protein 1 (aa 1404-1553) (other, UniProt P46940 1404-1553, looked up)
chain: LTEILETPATSEQEAEHQRAMQRRAIRDAKTPDKMKKSKSVKEDSNLTLQEKKEKIQTGLKKLTELGTVDPKNKYQELINDIARDIRNQRRYRQRRKAELVKLQQTYAALNSKATFYGEQVDYYKSYIKTCLDNLASKGKVSKKPREMKG
notes: range 1404-1553; also called IQGAP1; IQGAP
B5: GTPase-activating protein 1 (aa 1406-1547) (other, UniProt P46940 1406-1547, looked up)
chain: EILETPATSEQEAEHQRAMQRRAIRDAKTPDKMKKSKSVKEDSNLTLQEKKEKIQTGLKKLTELGTVDPKNKYQELINDIARDIRNQRRYRQRRKAELVKLQQTYAALNSKATFYGEQVDYYKSYIKTCLDNLASKGKVSKK
notes: range 1406-1547; also called IQGAP1; IQGAP
B6: GTPase-activating protein 1 (aa 1463-1568) (other, UniProt P46940 1463-1568, looked up)
chain: LKKLTELGTVDPKNKYQELINDIARDIRNQRRYRQRRKAELVKLQQTYAALNSKATFYGEQVDYYKSYIKTCLDNLASKGKVSKKPREMKGKKSKKISLKYTAARL
notes: range 1463-1568; also called IQGAP1; IQGAP
B7: intersectin 1 (aa 437-584) (other, UniProt Q15811 437-584, looked up)
chain: AKRELERQRQLEWERNRRQELLNQRNKEQEDIVVLKAKKKTLEFELEALNDKKHQLEGKLQDIRCRLTTQRQEIESTNKSRELRIAEITHLQQQLQESQQMLGRLIPEKQILNDQLKQVQQNSLHRDSLVTLKRALEAKELARQHLRD
notes: range 437-584
B8: intersectin 1 (aa 436-547) (other, UniProt Q15811 436-547, looked up)
chain: AAKRELERQRQLEWERNRRQELLNQRNKEQEDIVVLKAKKKTLEFELEALNDKKHQLEGKLQDIRCRLTTQRQEIESTNKSRELRIAEITHLQQQLQESQQMLGRLIPEKQI
notes: range 436-547
B9: hypothetical protein FLJ10540 (aa 1-74) (other, UniProt Q53EZ4 1-74, looked up)
chain: MSSRSTKDLIKSKWGSKPSNSKSETTLEKLKGEIAHLKTSVDEITSGKGKLTDKERHRLLEKIRVLEAEKEKNA
notes: range 1-74
B10: hypothetical protein FLJ10540 (aa 2-132) (other, UniProt Q53EZ4 2-132, looked up)
chain: SSRSTKDLIKSKWGSKPSNSKSETTLEKLKGEIAHLKTSVDEITSGKGKLTDKERHRLLEKIRVLEAEKEKNAYQLTEKDKEIQRLRDQLKARYSTTTLLEQLEETTREGERREQVLKALSEEKDVLKQQL
B11: hypothetical protein FLJ10540 (aa 1-120) (other, UniProt Q53EZ4 1-120, looked up)
chain: MSSRSTKDLIKSKWGSKPSNSKSETTLEKLKGEIAHLKTSVDEITSGKGKLTDKERHRLLEKIRVLEAEKEKNAYQLTEKDKEIQRLRDQLKARYSTTTLLEQLEETTREGERREQVLKA
notes: range 1-120
B12: hypothetical protein FLJ10540 (aa 1-115) (other, UniProt Q53EZ4 1-115, looked up)
chain: MSSRSTKDLIKSKWGSKPSNSKSETTLEKLKGEIAHLKTSVDEITSGKGKLTDKERHRLLEKIRVLEAEKEKNAYQLTEKDKEIQRLRDQLKARYSTTTLLEQLEETTREGERRE
notes: range 1-115
B13: Tropomyosin TM30 p1 (TPM4) (aa 79-142) (other, human, UniProt P67936 79-142, looked up)
chain: EAEKAADESERGMKVIENRAMKDEEKMEIQEMQLKEAKHIAEEADRKYEEVARKLVILEGELER
notes: range 79-142
B14: Zinc finger protein 231 (ZNF231) (aa 2308-2438) (other, UniProt Q9UPA5 2308-2438, looked up)
chain: EEPLPTTTPAAIKEAAGAPAPAPLAGQKPPADAAPGGGSGALSRPGFEKEEASQEERQRKQQEQLLQLERERVELEKLRQLRLQEELERERVELQRHREEEQLLVQRELQELQTIKHHVLQQQQEERQAQF
notes: range 2308-2438
B15: Chromosome-associated polypeptide HCAP (aa 208-300) (other, human, UniProt Q9UQE7 208-300, looked up)
chain: EELAQYQKWDKMRRALEYTIYNQELNETRAKLDELSAKRETSGEKSRQLRDAQQDARDKMEDIERQVRELKTKISAMKEEKEQLSAERQEQIK
notes: range 208-300
B16: Tropomyosin TM30 p1 (TPM4) (aa 91-142) (other, human, UniProt P67936 91-142, looked up)
chain: MKVIENRAMKDEEKMEIQEMQLKEAKHIAEEADRKYEEVARKLVILEGELER
notes: range 91-142
B17: Rho-associated (ROCK1) (aa 462-617) (other, UniProt Q13464 462-617, looked up)
chain: KIMKELDEEGNQRRNLESTVSQIEKEKMLLQHRINEYQRKAEQENEKRRNVENEVSTLKDQLEDLKKVSQNSQLANEKLSQLQKQLEEANDLLRTESDTAVRLRKSHTEMSKSISQLESLNRELQERNRILENSKSQTDKDYYQLQAILEAERRDR
notes: also called Rho-associated coiled coil-containing kinase ROCK1
B18: hypothetical protein FLJ10540 (aa 115-231) (other, UniProt Q53EZ4 115-231, looked up)
chain: EQVLKALSEEKDVLKQQLSAATSRIAELESKTNTLRLSQTVAPNCFNSSINNIHEMEIQLKDALEKNQQWLVYDQQREVYVKGLLAKIFELEKKTETAAHSLPQQTKKPESEGYLQE
B19: hypothetical protein FLJ10540 (aa 1-231) (other, UniProt Q53EZ4 1-231, looked up)
chain: MSSRSTKDLIKSKWGSKPSNSKSETTLEKLKGEIAHLKTSVDEITSGKGKLTDKERHRLLEKIRVLEAEKEKNAYQLTEKDKEIQRLRDQLKARYSTTTLLEQLEETTREGERREQVLKALSEEKDVLKQQLSAATSRIAELESKTNTLRLSQTVAPNCFNSSINNIHEMEIQLKDALEKNQQWLVYDQQREVYVKGLLAKIFELEKKTETAAHSLPQQTKKPESEGYLQE
B20: hypothetical protein FLJ10540 (aa 1-110) (other, UniProt Q53EZ4 1-110, looked up)
chain: MSSRSTKDLIKSKWGSKPSNSKSETTLEKLKGEIAHLKTSVDEITSGKGKLTDKERHRLLEKIRVLEAEKEKNAYQLTEKDKEIQRLRDQLKARYSTTTLLEQLEETTRE
notes: range 1-110
B21: hypothetical protein FLJ10540 (aa 1-117) (other, UniProt Q53EZ4 1-117, looked up)
chain: MSSRSTKDLIKSKWGSKPSNSKSETTLEKLKGEIAHLKTSVDEITSGKGKLTDKERHRLLEKIRVLEAEKEKNAYQLTEKDKEIQRLRDQLKARYSTTTLLEQLEETTREGERREQV
notes: range 1-117

For the first assay, the target named is T1, Tsg101 (aa 240-391) (human, UniProt Q99816 240-390).
T1 construct: range 240-391; also called C-terminal fragment of Tsg101; amino acid residues 240-390
T1 sequence (looked up): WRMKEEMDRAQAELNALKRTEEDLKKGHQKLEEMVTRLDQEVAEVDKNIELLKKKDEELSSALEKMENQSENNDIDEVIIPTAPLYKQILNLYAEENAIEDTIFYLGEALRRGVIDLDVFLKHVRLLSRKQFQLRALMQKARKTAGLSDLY
Put plainly: yeast two-hybrid.
As for B1, the binding result is listed as “binds”. The same measure, in the same setting: in the case of B2 it was “binds”; in that of B3, “binds”. The same measure, in the same setting: in the case of B4 it was “binds”. The same measure, in the same setting: for B5 the value was “binds”.

As to B6, the binding result is “binds”. Same read-out and setting: for B7 the value was “binds”; for B8, “binds”.

Another assay deals with T2, Tsg101 (aa 140-270) (human, UniProt Q99816 140-270).
T2 construct: range 140-270
T2 sequence (looked up): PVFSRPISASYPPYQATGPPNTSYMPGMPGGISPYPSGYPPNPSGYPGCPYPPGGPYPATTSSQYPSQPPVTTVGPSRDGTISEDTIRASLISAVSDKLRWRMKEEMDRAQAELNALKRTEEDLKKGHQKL
The assay is described as follows: yeast two-hybrid.
Consider B9, for which the binding result is on record as “binds”.

Consider B10, for which the binding result is reported as “binds”.

Take B11: the binding result was “binds”.

Take B12: the binding result is reported as “binds”.

For another assay, the target named is T3, Tsg101 (aa 231-391) (human, UniProt Q99816 231-390).
T3 sequence (looked up): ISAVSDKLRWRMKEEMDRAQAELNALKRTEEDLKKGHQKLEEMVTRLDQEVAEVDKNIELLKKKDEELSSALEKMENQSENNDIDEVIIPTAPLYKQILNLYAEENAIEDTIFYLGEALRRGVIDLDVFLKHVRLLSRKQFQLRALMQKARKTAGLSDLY
Put plainly: yeast two-hybrid.
In the case of B13, the binding result is on record as “binds”. On the same count and under the same terms, in the case of B14 it was “binds”; in that of B15, “binds”. Same read-out and setting: in the case of B16 it was “binds”; in that of B17, “binds”.

The next assay deals with T4, Tsg101 (aa 50-391) (human, UniProt Q99816 50-390).
T4 construct: range 50-391
T4 sequence (looked up): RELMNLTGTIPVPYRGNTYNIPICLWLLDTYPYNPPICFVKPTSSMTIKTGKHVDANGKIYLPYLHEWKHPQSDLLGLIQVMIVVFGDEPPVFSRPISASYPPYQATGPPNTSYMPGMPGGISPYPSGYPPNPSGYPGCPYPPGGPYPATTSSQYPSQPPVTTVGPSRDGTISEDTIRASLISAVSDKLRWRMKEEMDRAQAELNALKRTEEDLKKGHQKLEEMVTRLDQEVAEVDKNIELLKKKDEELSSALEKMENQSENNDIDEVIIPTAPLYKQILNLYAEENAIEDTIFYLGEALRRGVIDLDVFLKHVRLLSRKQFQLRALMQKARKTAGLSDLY
Put plainly: yeast two-hybrid.
On to B18, for which the binding result is recorded as “binds”. The same measure, in the same setting: for B19 the value was “binds”; for B20, “binds”; for B21, “binds”.
